Experimental data from patent publication US4609626A, “Method for producing S-adenosyl-L-homocysteine hydrolase” (Nippon Zeon Co., Ltd., priority 1983, dated 1986).
Values belong to the molecule of their own block, whether it stands above or below them.

Experiments:
[1] = biological target: T1, S-adenosyl-L-homocysteine hydrolase (SAHase) from Alcaligenes faecalis (IFO 12669) (Alcaligenes faecalis, UniProt A0A2U2BLR9); conditions: read-out: Km for SAH; purified crystalline SAHase of Example 1
T1 sequence (A0A2U2BLR9 1-465): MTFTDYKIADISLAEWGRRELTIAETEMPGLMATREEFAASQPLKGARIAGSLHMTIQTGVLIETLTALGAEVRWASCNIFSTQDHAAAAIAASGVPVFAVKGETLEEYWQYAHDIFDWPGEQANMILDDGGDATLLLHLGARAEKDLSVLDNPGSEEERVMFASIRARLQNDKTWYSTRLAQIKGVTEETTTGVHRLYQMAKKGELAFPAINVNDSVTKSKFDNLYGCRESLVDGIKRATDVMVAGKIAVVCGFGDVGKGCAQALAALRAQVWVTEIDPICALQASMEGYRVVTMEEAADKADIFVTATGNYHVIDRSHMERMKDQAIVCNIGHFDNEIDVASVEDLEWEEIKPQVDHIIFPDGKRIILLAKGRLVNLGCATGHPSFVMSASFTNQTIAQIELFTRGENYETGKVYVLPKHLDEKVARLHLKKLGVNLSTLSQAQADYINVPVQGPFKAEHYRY
Description: (§1) Then, the reaction is stopped by adding 0.1 ml of 30% perchloric acid. Then, 0.9 ml of 0.5M phosphate buffer (pH 7.0) was added to the reaction mixture. The resulting precipitate is removed by centrifugal separation. The supernatant obtained is analyzed by high-performance liquid chromatography (Model 638-30 made by Hitachi Limited; column Cosmocil 5C18 ; eluent 0.2M KH2 PO4 /methanol=90/10 (V/v); detector UV 260 nm) to determine the amount of SAH produced. The SAH synthesizing enzyme activity is expressed in units. One unit is defined as the amount of the enzyme which is required to form 1 micromole of SAH per minute.
(§2) SAH is reacted with SAHase, and the resulting AdR is converted to inosine in the presence of an excess of adenosine deaminase. The speed of the decrease of the absorbance at 265 nm at this time is measured. Specifically, 475 microliters of 10 mM phosphate buffer, 10 microliters of 2.5 mM SAH, 5 microliters of adenosine deaminase (Type III produced by Sigma Company) and 10 microliters of an enzyme solution are reacted at 25° C., and the speed of the decrease of the absorbance at 265 nm at this time is measured to determine the amount of SAH hydrolyzed. The SAH hydrolysis enzyme activity is expressed in units. One unit is defined as the amount of the enzyme which is required to hydrolyze 1 micromole of SAH per minute.

[2] = substrate: N[C@@H](CCS)C(=O)O; assay: purified protein, by the assay type; conditions: other: purified crystalline SAHase of Example 1
[3] = substrate: Nc1ncnc2c1ncn2[C@@H]1O[C@H](CO)[C@@H](O)[C@H]1O; assay: purified protein, by the assay type; conditions: other: purified crystalline SAHase of Example 1
Description: as §1, §2

Km [1]: 10 µM
Molecule: Nc1ncnc2c1ncn2[C@@H]1O[C@H](CSCC[C@H](N)C(=O)O)[C@@H](O)[C@H]1O [SAH, S-adenosyl-L-homocysteine]

B1: S-adenosyl-L-homocysteine hydrolase (SAHase) from Alcaligenes faecalis (IFO 12669) (Alcaligenes faecalis) (protein)
chain: T1 sequence (A0A2U2BLR9 1-465)
Km [2]: 930 µM
Km [3]: 37 µM
